Assay results as given in patent publication US20200317768A1 (published 2020).
Changes are numbered by the printed parent chain. Values belong to the binder of their own block, whether it stands above or below them.

Assays:
[1] = molecular target: T1, human FcγRIIaH extracellular domain, His-tagged (human, UniProt P12318 34-217); assay: SPR, antibody captured, FcgR analyte
T1 construct: also called human FcγRIIa (type H); FcgRIIaH
T1 sequence: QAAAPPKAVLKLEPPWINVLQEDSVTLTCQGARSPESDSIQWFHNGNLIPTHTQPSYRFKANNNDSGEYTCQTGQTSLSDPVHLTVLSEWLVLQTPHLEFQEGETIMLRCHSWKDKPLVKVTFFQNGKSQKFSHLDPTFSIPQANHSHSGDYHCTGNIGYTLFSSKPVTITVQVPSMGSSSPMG
Method: (§1) The kinetic analysis of interactions between these antibodies and FcγR was carried out using BIACORE® T200 or BIACORE® 4000 (GE Healthcare). HBS-EP+ (GE Healthcare) was used as the running buffer, and the measurement temperature was set to 25° C. A chip produced by immobilizing Protein A. Protein A/G or mouse anti-human IgG kappa light chain (BD Biosciences) onto a Series S Sensor Chip CM4 or CM5 (GE Healthcare) by the amine-coupling method was used. […] After the measurement, the antibody captured on the chip was washed off by allowing reaction with 10 mM glycine-HCl, pH1.5 and 25 mM NaOH so that the chip was regenerated and used repeatedly. The sensorgrams obtained as measurement results were analyzed by the 1:1 Langmuir binding model using the BIACORE® Evaluation Software to calculate the binding rate constant ka (L/mol/s) and dissociation rate constant kd (l/s), and the dissociation constant KD (mol/L) was calculated from these values. […] Regarding such interactions, KD values were calculated using the following 1:1 binding model described in BIACORE® T100 Software Handbook BR1006-48 Edition AE.
(§2) The behavior of interacting molecules according to the 1:1 binding model on BIACORE® can be described by Equation 1: Req=C·R max/(KD+C)+RI, wherein, Req is a plot of steady-state binding levels to analyte concentration. C is concentration, RI is bulk refractive index contribution in the sample, and Rmax is analyte binding capacity of the surface. When this equation is rearranged, KD can be expressed as Equation 2: KD=C·Rmax/(Req−RI)−C. KD can be calculated by substituting the values of Rmax, RI, and C into Equation 1 or Equation 2. From the current measurement conditions, RI=0, C=2 μmol/L can be used.

[2] = molecular target: T2, human FcγRIIb extracellular domain, His-tagged (human, UniProt P31994 43-217); assay: SPR, antibody captured, FcgR analyte
T2 construct: also called FcgRIIb (human)
T2 sequence: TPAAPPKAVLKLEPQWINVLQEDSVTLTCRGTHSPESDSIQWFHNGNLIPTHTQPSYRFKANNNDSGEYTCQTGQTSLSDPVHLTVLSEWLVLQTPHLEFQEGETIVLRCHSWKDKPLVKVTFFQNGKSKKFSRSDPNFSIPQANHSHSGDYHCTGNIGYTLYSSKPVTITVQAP
Method: as §1, §2

[3] = molecular target: T3, cynomolgus monkey FcγRIIa1 extracellular domain, His-tagged (cynomolgus monkey); assay: SPR, antibody captured, FcgR analyte
T3 construct: also called cyno FcγRIIa1; cynoFcgRIIa1
T3 chain: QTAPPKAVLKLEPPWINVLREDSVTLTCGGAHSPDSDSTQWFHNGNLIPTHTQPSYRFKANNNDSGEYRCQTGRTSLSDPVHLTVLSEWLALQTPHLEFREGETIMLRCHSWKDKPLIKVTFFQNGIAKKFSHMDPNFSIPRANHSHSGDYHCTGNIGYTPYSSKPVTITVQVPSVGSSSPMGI
Method: as §1, §2

[4] = molecular target: T4, cynomolgus monkey FcγRIIIaS extracellular domain, His-tagged (cynomolgus monkey, UniProt Q8SPW2 21-206 at identity 1.00)); assay: SPR, antibody captured, FcgR analyte
T4 construct: also called cyno FcγRIIIaS; cynoFcγRIIIaS
T4 chain: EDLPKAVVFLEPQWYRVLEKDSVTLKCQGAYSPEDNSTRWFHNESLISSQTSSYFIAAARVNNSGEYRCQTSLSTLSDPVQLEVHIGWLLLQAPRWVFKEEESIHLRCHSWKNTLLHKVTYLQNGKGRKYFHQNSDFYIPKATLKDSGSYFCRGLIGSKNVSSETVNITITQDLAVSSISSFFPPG
Method: as §1, §2

[5] = molecular target: T5, human FcγRIIaR extracellular domain, His-tagged (human, UniProt P12318 34-217); assay: SPR, antibody captured, FcgR analyte
T5 construct: also called human FcγRIIa (type R); FcgRIIaR
T5 chain: T1 sequence with H134R
Method: as §1, §2

[6] = molecular target: T6, human FcγRIIIaV extracellular domain, His-tagged (human, UniProt P08637 17-208); assay: SPR, antibody captured, FcgR analyte
T6 construct: also called FcgRIIIaV
T6 sequence (P08637 17-208 F176V): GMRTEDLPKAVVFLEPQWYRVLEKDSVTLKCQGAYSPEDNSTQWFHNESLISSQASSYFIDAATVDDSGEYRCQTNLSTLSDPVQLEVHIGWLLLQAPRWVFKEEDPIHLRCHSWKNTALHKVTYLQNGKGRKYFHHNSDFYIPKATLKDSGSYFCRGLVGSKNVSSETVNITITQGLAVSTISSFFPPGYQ
Method: as §1, §2

[7] = molecular target: T7, cynomolgus monkey FcγRIIa3 extracellular domain, His-tagged (cynomolgus monkey); assay: SPR, antibody captured, FcgR analyte
T7 construct: also called cyno FcγRIIa3; cynoFcgRIIa3
T7 chain: T3 chain with P95T, T121A, A128S, H133P, D135N
Method: as §1, §2

[8] = molecular target: T8, cynomolgus monkey FcγRIIb extracellular domain, His-tagged (cynomolgus monkey); assay: SPR, antibody captured, FcgR analyte
T8 construct: also called cyno FcγRIIb; cynoFcγRIIb
T8 chain: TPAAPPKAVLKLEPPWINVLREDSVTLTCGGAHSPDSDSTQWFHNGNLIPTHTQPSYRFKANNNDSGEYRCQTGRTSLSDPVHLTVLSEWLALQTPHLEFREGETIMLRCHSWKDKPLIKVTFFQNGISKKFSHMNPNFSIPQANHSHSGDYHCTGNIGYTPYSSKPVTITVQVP
Method: as §1, §2

[9] = molecular target: T9, cynomolgus monkey FcγRIIa2 extracellular domain, His-tagged (cynomolgus monkey); assay: SPR, antibody captured, FcgR analyte
T9 construct: also called cyno FcγRIIa2; cynoFcgRIIa2
T9 chain: T3 chain with P95T, T121A, I127K, A128S, K130N, D135N, R142Q
Method: as §1, §2

[10] = molecular target: T1, human FcγRIIaH extracellular domain, …; assay: SPR; KD of SG1 / KD of variant;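 also: relative to parent M103205H795-SG1 carrying the SG1 human heavy chain constant region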
[11] = molecular target: T2, human FcγRIIb extracellular domain, …; assay: SPR; KD of SG1 / KD of variant;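 also: relative to parent M103205H795-SG1 carrying the SG1 human heavy chain constant region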
[12] = molecular target: T3, cynomolgus monkey FcγRIIa1 …; assay: SPR; KD of SG1 / KD of variant;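 also: relative to parent M103205H795-SG1 carrying the SG1 human heavy chain constant region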
[13] = molecular target: T4, cynomolgus monkey FcγRIIIaS …; assay: SPR; KD of SG1 / KD of variant;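 also: relative to parent M103205H795-SG1 carrying the SG1 human heavy chain constant region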
[14] = molecular target: T6, human FcγRIIIaV extracellular domain, …; assay: SPR; KD of SG1 / KD of variant
[15] = molecular target: T7, cynomolgus monkey FcγRIIa3 …; assay: SPR; KD of SG1 / KD of variant
[16] = molecular target: T8, cynomolgus monkey FcγRIIb extracellular …; assay: SPR; KD of SG1 / KD of variant
[17] = molecular target: T9, cynomolgus monkey FcγRIIa2 …; assay: SPR; KD of SG1 / KD of variant

Kd [1]: 440 nM
Kd [2]: 900 nM
Kd [3]: 2100 nM
Kd [4]: 200 nM
Kd [5]: 230 nM
Kd [6]: 480 nM
Kd [7]: 7.9 µM
Kd [8]: 1100 nM
Kd [9]: 2300 nM
KD fold (SG1 = 1) [10]: 1.6 fold
KD fold (SG1 = 1) [11]: 5.3 fold
KD fold (SG1 = 1) [12]: 1.5 fold
KD fold (SG1 = 1) [13]: 1.8 fold
KD fold (SG1 = 1) [14]: 1.69 fold
KD fold (SG1 = 1) [15]: 2.2 fold
KD fold (SG1 = 1) [16]: 1.6 fold
KD fold (SG1 = 1) [17]: 2.2 fold
B1: M103205H795-MY012/M103202L889-SK1 (antibody, human IgG1, kappa)
heavy: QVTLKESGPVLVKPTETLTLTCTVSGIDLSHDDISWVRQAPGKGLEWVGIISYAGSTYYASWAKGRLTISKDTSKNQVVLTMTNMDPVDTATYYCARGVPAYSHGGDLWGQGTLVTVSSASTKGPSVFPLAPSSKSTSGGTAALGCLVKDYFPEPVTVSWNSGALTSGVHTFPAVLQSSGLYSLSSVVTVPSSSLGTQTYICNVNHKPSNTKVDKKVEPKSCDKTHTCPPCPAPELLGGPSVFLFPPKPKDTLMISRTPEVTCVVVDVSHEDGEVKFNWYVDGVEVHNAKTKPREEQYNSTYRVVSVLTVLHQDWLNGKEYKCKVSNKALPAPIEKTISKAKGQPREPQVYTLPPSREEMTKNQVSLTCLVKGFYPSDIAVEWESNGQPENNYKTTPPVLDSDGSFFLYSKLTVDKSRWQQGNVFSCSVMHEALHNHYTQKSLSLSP
light: DIVMTQSPATLSLSPGERATLSCTSSQSVYHANWLSWFQQKPGQPPKLLIYWASTLAYGVPSRFSGSGSGTDFTLTISSLQPEDAATYYCAGGYGGGRYAFGQGTKVEIKRTVAAPSVFIFPPSDEQLKSGTASVVCLLNNFYPREAKVQWKVDNALQSGNSQESVTEQDSKDSTYSLSSTLTLSKADYEKHKVYACEVTHQGLSSPVTKSFNRGEC
notes: Put into M103205H795-SG1

Kd [1]: 1400 nM
Kd [2]: 2500 nM
Kd [3]: 6500 nM
Kd [4]: 3400 nM
Kd [5]: 1300 nM
Kd [6]: 3000 nM
Kd [7]: 18 µM
Kd [8]: 4200 nM
KD fold (SG1 = 1) [10]: 0.5 fold
KD fold (SG1 = 1) [11]: 1.8 fold
KD fold (SG1 = 1) [12]: 0.5 fold
KD fold (SG1 = 1) [13]: 0.11 fold
KD fold (SG1 = 1) [14]: 0.27 fold
KD fold (SG1 = 1) [15]: 0.5 fold
KD fold (SG1 = 1) [16]: 0.6 fold
KD fold (SG1 = 1) [17]: 0.8 fold
B2: M103205H795-MY061/M103202L889-SK1 (antibody, human IgG1, kappa)
heavy: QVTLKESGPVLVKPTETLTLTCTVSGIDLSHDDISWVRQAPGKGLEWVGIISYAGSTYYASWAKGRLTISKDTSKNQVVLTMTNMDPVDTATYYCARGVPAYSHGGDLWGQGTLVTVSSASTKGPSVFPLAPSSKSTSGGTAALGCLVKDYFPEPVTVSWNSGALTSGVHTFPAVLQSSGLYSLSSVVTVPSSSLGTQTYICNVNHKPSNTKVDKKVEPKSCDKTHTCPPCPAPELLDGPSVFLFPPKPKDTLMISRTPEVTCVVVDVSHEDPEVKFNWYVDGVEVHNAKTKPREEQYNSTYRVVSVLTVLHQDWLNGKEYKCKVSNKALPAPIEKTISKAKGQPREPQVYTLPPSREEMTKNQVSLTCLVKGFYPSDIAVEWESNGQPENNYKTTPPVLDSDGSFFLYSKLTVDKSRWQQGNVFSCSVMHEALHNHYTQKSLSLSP
light: B1 light
notes: Substitution put into M103205H795-SG1

Kd [1]: 450 nM
Kd [2]: 940 nM
Kd [3]: 2700 nM
Kd [4]: 98 nM
Kd [5]: 280 nM
Kd [6]: 140 nM
Kd [7]: 5.5 µM
Kd [8]: 580 nM
Kd [9]: 2900 nM
KD fold (SG1 = 1) [10]: 1.5 fold
KD fold (SG1 = 1) [11]: 4.9 fold
KD fold (SG1 = 1) [12]: 1.2 fold
KD fold (SG1 = 1) [13]: 3.67 fold
KD fold (SG1 = 1) [14]: 5.79 fold
KD fold (SG1 = 1) [15]: 3.2 fold
KD fold (SG1 = 1) [16]: 2.6 fold
KD fold (SG1 = 1) [17]: 1.8 fold
B3: M103205H795-MY017/M103202L889-SK1 (antibody, human IgG1, kappa)
heavy: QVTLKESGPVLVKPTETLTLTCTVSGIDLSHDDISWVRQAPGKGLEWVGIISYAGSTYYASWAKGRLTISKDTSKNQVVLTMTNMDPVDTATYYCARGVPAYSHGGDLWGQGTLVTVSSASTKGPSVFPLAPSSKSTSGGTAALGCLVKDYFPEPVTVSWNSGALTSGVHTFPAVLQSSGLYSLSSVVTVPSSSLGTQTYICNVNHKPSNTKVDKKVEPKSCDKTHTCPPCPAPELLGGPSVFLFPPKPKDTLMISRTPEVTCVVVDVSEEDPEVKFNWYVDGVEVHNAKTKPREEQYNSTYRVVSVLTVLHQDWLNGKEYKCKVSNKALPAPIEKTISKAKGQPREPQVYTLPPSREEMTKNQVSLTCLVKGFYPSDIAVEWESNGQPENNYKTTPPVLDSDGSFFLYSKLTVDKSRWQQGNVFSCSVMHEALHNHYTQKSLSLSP
light: B1 light
notes: as for B2
